Biological target: T1, human ALK7-Fc comprising protein (human, UniProt Q8NER5 22-113, limits assumed)
T1 construct: The wording 'ALK7-Fc comprising protein' leaves open whether further chains are present; also called human ALK7-Fe comprising protein; not shown: Fc portion
T1 sequence: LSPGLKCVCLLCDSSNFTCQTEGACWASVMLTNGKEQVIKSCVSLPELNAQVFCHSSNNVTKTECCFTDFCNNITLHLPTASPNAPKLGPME
Assay: SPR (Biacore T100/T200); antibody captured on FAB chip, ALK7-Fc comprising protein as analyte; 1:1 fit
Description: Experiments were performed using a Biacore T100/T200 biosensor (Biacore/GE Healthcare) at 25 and 37° C. ALK7 antibodies were captured on custom made FAB chip. A concentration series of ALK7-Fc comprising protein was injected over the flow cells at a flow rate of […]. To obtain kinetic rate constants the corrected data were fit to a 1:1 interaction model using BiaEvaluation software (GE Healthcare). The equilibrium binding constant KD was determined by the ratio of binding rate constants kd/ka.

- koff: 0.000367 s⁻¹
B1: L01 (antibody, V domains shown)
VH: QVQLVQSGAEVKKPGSSVKVSCKASGGTFSSYAISWVRQAPGQGLEWMGSIIPIFGTANYAQKFQGRVTITADESTSTAYMELSSLRSEDTAVYYCARDPVGARYEVFDYWGQGTLVTVSS
VL: EIVMTQSPATLSVSPGERATLSCRASQSVSSNLAWYQQKPGQAPRLLIYSASTRATGIPARFSGSGSGTEFTLTISSLQSEDFAVYYCQQANTFPLTFGGGTKVEIK
notes: Human IgG from yeast libraries; also called LOL
